Assay results from patent US20250302974A1, “LECTIN-DRUG CONJUGATES” (UNICHEM LABORATORIES LIMITED, priority 2021, published 2025).

Legend:
[1] = Glycan binding study, O-Glycan array containing 94 glycans; conditions: T-antigen and its extended core structures
[2] = test system: bladder cancer cells (T24); experiment: Colocalization study in cell organelles, confocal microscopy, FITC-tagged lectin; type: cell-based; conditions: 100 μg/mL FITC-labelled, 2 h
Experimental: Study was performed to analyze the localization of SEQ ID NO 2 (test item) in cell organelles using Confocal microscopy.
Test Item provided as aqueous solution was tagged with FITC label at Bioklone Biotech Pvt Ltd. Resultant concentration of FITC tagged test Item was 1 mg/mL.
The stock solution of Test Item was diluted in Serum Free Medium (SFM) at single concentration—100 μg/mL.
Cells were plated on a glass coverslip at a density of 0.1×10^6 cells per well.
Following the incubation cells were washed with PBS (3 washes) and fixed using 4% paraformaldehyde for 10 min at RT. After fixation, cells were permeabilized using 0.5% IGEPAL for 10 min at RT (Permeabilization was not done for cells that were stained with Pan-Cadherin). Post permeabilization, cells were blocked using 5% normal goat serum for 1 hour at RT. Post blocking, cells were treated with organelle specific markers for 1.5 hours at RT followed by secondary antibody for 2 hours at RT.
Following antibodies were used for different organelles:
Post incubation, cells were washed using PBST (3 washes) and PBS (3 washes) and stained with DAPI (nucleus stain) for 3 min at RT.
Cells were washed (3 washes) and mounted on a glass slide using Prolong Glass antifade mountant. Imaging was done using Confocal fluorescence microscope (Make: Olympus FV1000) at AIRF, JNU. Images were captured using software FluoView. […]

[3] = Glycan binding study, N-Glycan array containing 100 glycans
[4] = test system: ovarian cancer cell line (PA-1); experiment: Cytotoxicity assay, cell titer glow luminescence, 72 h; type: cell-based
Experimental: (§1) T-24 Cell line were cultured in McCoy's 5a Medium Modified supplemented with 10% FBS and the PA-1 Cell line was cultured in EMEM Media supplemented with 10% FBS. The assay was performed by plating 5,000 cells/well and incubated at 37° C. overnight. […] Each concentration was added in triplicate and media-only wells used as a control. After incubation for 72 h cell titer glow (Promega) reagent (50 μL) was added to each well and the plates shaken for 5 mins and the luminescence was recorded. Percent viability was determined by dividing luminescence of the treated well by the non-treated well and multiplying by 100. Data was analysed using non-linear regression with a logarithmic scale.
(§2) 5,000 cells/well were plated and incubated at 37° C. overnight. Conjugates/vehicle control dilutions were made in respective media and added to cells. Volume added: 50 uL to each well. Starting treatment concentration was 1 uM for Conjugate of formula 16 and 18, and control SEQ ID NO: 5 alone and 10% for vehicle control (1×PBS with 20% DMA) and then diluted 10-fold down for a total of 11 treatment dilutions. Each concentration was analysed in triplicates. Media-only wells was used as a control to calculate percent viability. Cell titer glow reagent (volume: 50 uL) was added to each well, the plate was shaken for 5 mins and the luminescence was recorded. Drug Treatment Time: 72 hours. Percent viability was calculated by dividing the luminescence signal obtained for each treated well by the untreated well (media-only control) and multiplying by 100.

[5] = test system: human urinary bladder cancer cell line (T-24); experiment: as above; type: cell-based
Experimental: as §1, §2

MG-63 Bone = experiment: Cytotoxic effect by MTT assay, 48 h; conditions: for Percent cytotoxicity wrt control: 48 h
Experimental: (§3) Cells were treated with Test Items at various concentrations (0.0001 μM-10 μM) for 48 h. The cells corresponding to Positive Control group were treated with Doxorubicin at a concentration ranging from 0.1 μM-100 μM. The Untreated cells were used as Control. After 48 h of incubation, the effect of Test Items on cytotoxicity of cells was determined by MTT assay, the plates were taken out and 20 μl of 5 mg/m1 of MTT 3-(4,5-dimethythiazol-2-yl)-2,5-diphenyl tetrazolium bromide solution was added to all the wells. Cells were incubated for 3 h at 37° C. The supernatant was aspirated. 150 μl of DMSO was added to each well to dissolve formazan crystals. The absorbance of each well was then read at 540 nm using Synergy HT micro plate reader.
(§4) The % Cytotoxicity was calculated using the formula:
(§5) Where, X=Absorbance of cells treated with Test Item; R=Absorbance of Control cells (Untreated cells maintained in growth medium only).
(§6) Selectivity Index was calculated using the formula:
(§7) SI=IC50 in Normal cell/IC50 in cancer cell.
(§8) Activity scores of the Selective Index values were categorized as: • Not selective (SI value ≤1) • Moderately selective (1<SI value <5) • Selective (SI value ≥5)

AGS Stomach = experiment: Cytotoxic effect by MTT assay, 48 h; conditions: for Percent cytotoxicity wrt control: AGS, 48 h
Experimental: as §3, §4, §5, §6, §7, §8

MDA-MB-231 Breast = experiment: Cytotoxic effect by MTT assay, 48 h; conditions: for Percent cytotoxicity wrt control: 48 h
Experimental: as §3, §4, §5, §6, §7, §8

T24 Bladder = experiment: Cytotoxic effect by MTT assay, 48 h; conditions: for Percent cytotoxicity wrt control: 48 h
Experimental: as §3, §4, §5, §6, §7, §8

KB Cervix = experiment: Cytotoxic effect by MTT assay, 48 h; conditions: for Percent cytotoxicity wrt control: KB, 48 h
Experimental: as §3, §4, §5, §6, §7, §8

B1: SEQ ID NO: 2: recombinant variant of the S. rolfsii lectin amino acid sequence (reported as Rec-2 in WO2010/095143) (protein)
chain: TYKITVRVYQTNPDAFFHPVEKTVWKYANGGTWTITDDQHVLTMGGSGTSGTLRFHADNGESFTATFGVHNYKRWCDIVTNLAADETGMVINQQYYSQKNREEARERQLSNYQVKNAKGRNFQIVYTEAEGNDLHANLIIG
In the case of B1, the “binding profile to O-glycans (in words)” value [1] is reported as “strong and broad binding profile”, the “colocalization in cell organelles” value [2] is reported as “colocalized in Mitochondria, Endoplasmic reticulum, Golgi bodies and Plasma membrane” and the “localization in the nuclear envelope” value [2] is reported as “no localization was observed”. For the same molecule, the “binding to N-glycans (in words)” value [3] was “specific binding”, the “IC50 values, PA-1 Cell line” value ([4]; 72 h) was 20.3 µg/mL and the “cytotoxic effects below 10 μM concentration” value ([4]; below 10 μM) was “does not exhibit major cytotoxic effects”. For the same molecule, the “IC50 values, T-24 cell line” value ([5]; 72 h) was 10.4 µg/mL, the “cytotoxic effects below 10 μM concentration” value ([5]; below 10 μM) was “does not exhibit major cytotoxic effects” and the “Percent cytotoxicity wrt control” value (MG-63 Bone; MG-63, 0.0001 μM) was 27%. For the same molecule, the “Percent cytotoxicity wrt control” value (MG-63 Bone; MG-63, 0.001 μM) was 38.7%, the “Percent cytotoxicity wrt control” value (MG-63 Bone; MG-63, 0.01 μM) was 50.4% and the “Percent cytotoxicity wrt control” value (MG-63 Bone; MG-63, 0.1 μM) was 59.1%. The “Percent cytotoxicity wrt control” value (MG-63 Bone; MG-63, 1 μM) was 72.3%, the “Percent cytotoxicity wrt control” value (MG-63 Bone; MG-63, 10 μM) was 74% and the IC50 (MG-63 Bone; read-out: IC50 Values, MG-63 Bone, after 48 h of treatment) was 12.7 nM. For the same molecule, the “Percent cytotoxicity wrt control” value (AGS Stomach; 0.0001 μM) was 7.8%, the “Percent cytotoxicity wrt control” value (AGS Stomach; 0.001 μM) was 8.5% and the “Percent cytotoxicity wrt control” value (AGS Stomach; 0.01 μM) was 15.9%. For the same molecule, the “Percent cytotoxicity wrt control” value (AGS Stomach; 0.1 μM) was 37%, the “Percent cytotoxicity wrt control” value (AGS Stomach; 1 μM) was 49.9% and the “Percent cytotoxicity wrt control” value (AGS Stomach; 10 μM) was 57.2%. For the same molecule, the IC50 (AGS Stomach; read-out: IC50 Values, AGS Stomach, after 48 h of treatment) was 1720 nM, the “Percent cytotoxicity wrt control” value (MDA-MB-231 Breast; MDA-MB-231, 0.0001 μM) was 13.7% and the “Percent cytotoxicity wrt control” value (MDA-MB-231 Breast; MDA-MB-231, 0.001 μM) was 15.1%. For the same molecule, the “Percent cytotoxicity wrt control” value (MDA-MB-231 Breast; MDA-MB-231, 0.01 μM) was 16.2%, the “Percent cytotoxicity wrt control” value (MDA-MB-231 Breast; MDA-MB-231, 0.1 μM) was 28.1% and the “Percent cytotoxicity wrt control” value (MDA-MB-231 Breast; MDA-MB-231, 1 μM) was 48.5%. For the same molecule, the “Percent cytotoxicity wrt control” value (MDA-MB-231 Breast; MDA-MB-231, 10 μM) was 66.4%, the IC50 (MDA-MB-231 Breast; read-out: IC50 Values, MDA-MB-231 Breast, after 48 h of treatment) was 1350 nM and the “Percent cytotoxicity wrt control” value (T24 Bladder; T24, 0.0001 μM) was 9.7%. The “Percent cytotoxicity wrt control” value (T24 Bladder; T24, 0.001 μM) was 11.1%, the “Percent cytotoxicity wrt control” value (T24 Bladder; T24, 0.01 μM) was 9.1% and the “Percent cytotoxicity wrt control” value (T24 Bladder; T24, 0.1 μM) was 10.5%. For the same molecule, the “Percent cytotoxicity wrt control” value (T24 Bladder; T24, 1 μM) was 43.1%, the “Percent cytotoxicity wrt control” value (T24 Bladder; T24, 10 μM) was 68.7% and the IC50 (T24 Bladder; read-out: IC50 Values, T24 Bladder, after 48 h of treatment) was 2130 nM. The “Percent cytotoxicity wrt control” value (KB Cervix; 0.0001 μM) was −1.5%, the “Percent cytotoxicity wrt control” value (KB Cervix; 0.001 μM) was −2.6% and the “Percent cytotoxicity wrt control” value (KB Cervix; 0.01 μM) was −3.9%. The “Percent cytotoxicity wrt control” value (KB Cervix; 0.1 μM) was 20.4%, the “Percent cytotoxicity wrt control” value (KB Cervix; 1 μM) was 51.2% and the “Percent cytotoxicity wrt control” value (KB Cervix; 10 μM) was 54.9%. For the same molecule, the IC50 (KB Cervix; read-out: IC50 Values, KB Cervix, after 48 h of treatment) was 880 nM.
